B1: IL-22BP-Ig (Fc fusion)
chain: TQSTHESLKPQRVQFQSRNFHNILQWQPGRALTGNSSVYFVQYKIYGQRQWKNKEDCWGTQELSCDLTSETSDIQEPYYGRVRAASAGSYSEWSMTPRFTPWWETKIDPPVMNITQVNGSLLVILHAPNLPYRYQKEKNVSIEDYYELLYRVFIINNSLEKEQKVYEGAHRAVEIEALTPHSSYCVVAEIYQPMLDRRSQRSEERCVEIP
notes: Used as supernatant of transiently transfected HEK293 cells; it may begin with Met or Met Met; also called IL-TIFR-Ig; IL-22BP fusion protein; not shown: hinge, CH2 and CH3 domains of murine IgG3 isotype heavy chain, amplified from IgG3 anti-TNP hybridoma C3110

How the values were obtained:
IL-22BP-Ig = molecular target: B1; test: ELISA, IL-TIF/IL-22 coated on plate, HEK293 supernatant, anti-Ig peroxidase detection
Protocol: (§1) Assays were then carried out by coating polystyrene plates with either 0.083 mg/ml of recombinant human IL-TIF/IL-22, or […] bovine serum albumin, in 20 mm Tris. Glycine buffer containing 30 mm NaCl, pH 9.2, overnight, at 4° C. Following washing in PBS buffer plus Tween 20 (10⁻⁴) plates were blocked with PBS plus 1% BSA for two hours, and then 50 μl of supernatant from transiently transfected HEK293 cells was added. Plates were then incubated for 2 hours, at 37° C. Any bound fusion protein was detected, using murine anti-Ig polyclonal antibodies coupled to peroxidase. Detection was carried out using the peroxidase substrate “TMB”, or (3,3′,5, 5′-tetramethylbenzidine), and stopped by 20 μl H₂S0_{4.}

bovine serum albumin = molecular target: T1, bovine serum albumin (bovine, UniProt P02769 25-607); test: ELISA, coated plate, HEK293 supernatant, anti-Ig peroxidase detection
T1 construct: Negative control coating in the ELISA; also called BSA
Protocol: as §1

T1 sequence (P02769 25-607 limits assumed): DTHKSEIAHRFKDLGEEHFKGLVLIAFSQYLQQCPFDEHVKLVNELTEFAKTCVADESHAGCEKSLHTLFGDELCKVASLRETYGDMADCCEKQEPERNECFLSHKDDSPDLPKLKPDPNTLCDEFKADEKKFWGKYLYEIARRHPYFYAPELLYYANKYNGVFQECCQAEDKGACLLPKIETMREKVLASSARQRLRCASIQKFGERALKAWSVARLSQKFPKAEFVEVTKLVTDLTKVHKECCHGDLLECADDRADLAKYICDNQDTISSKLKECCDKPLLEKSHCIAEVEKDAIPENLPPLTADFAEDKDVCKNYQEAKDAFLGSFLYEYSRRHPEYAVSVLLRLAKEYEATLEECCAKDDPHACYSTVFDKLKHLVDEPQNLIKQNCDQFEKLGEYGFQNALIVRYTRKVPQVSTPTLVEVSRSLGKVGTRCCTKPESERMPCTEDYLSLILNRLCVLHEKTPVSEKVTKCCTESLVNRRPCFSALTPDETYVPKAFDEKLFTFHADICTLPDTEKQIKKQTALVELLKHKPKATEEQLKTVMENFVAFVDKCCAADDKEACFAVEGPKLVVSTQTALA

Row | Binder | binding result (IL-22BP-Ig) | binding result (bovine serum albumin)
1 | recombinant human IL-TIF/IL-22 (ligand, UniProt Q9GZX6 34-179, looked up) APISSHCRLDKSNFQQPYITNRTFMLAKEASLADNNTDVRLIGEKLFHGVSMSERCYLMKQVLNFTLEEVLFPQSDRFQPYMQEVVPFLARLSNRLSTCHIEGDDLHIQRNVQKLKDTVKKLGESGEIKAIGELDLLFMSLRNACI | binds | –
2 | B1 | – | no binding
3 | IL-22R-Ig (Fc fusion, UniProt Q8N6P7 16-228, looked up, Used as supernatant of transiently transfected HEK293 cells; also called fusion protein of IL-22R and the IgG3 Fc fragment; not shown: IgG3 Fc fragment, made 'in similar fashion' to the murine IgG3 hinge-CH2-CH3 of IL-TIFR-Ig) HAPEDPSDLLQHVKFQSSNFENILTWDSGPEGTPDTVYSIEYKTYGERDWVAKKGCQRITRKSCNLTVETGNLTELYYARVTAVSAGGRSATKMTDRFSSLQHTTLKPPDVTCISKVRSIQMIVHPTPTPIRAGDGHRLTLEDIFHDLFYHLELQVNRTYQMHLGGKQREYEFFGLTPDTEFLGTIMICVPTWAKESAPYMCRVKTLPDRTWT | – | no binding

From US20040180399A1 (Pfizer, published 2004)
